Data from US20140094415A1.
Read-outs that look alike come from different tables or passages of the source. Blank lines part the entries; values can stand above or below the binder they belong to. Where no end group is shown, it is not given here.

Assays:
[1] = target: T1, HIS-PDZ1-2 protein (PSD-95 PDZ1-2 tandem) (human), P78352; assay: fluorescence polarization, saturation binding: increasing PDZ1-2 on 0.5 nM probe
[2] = target: T1, HIS-PDZ1-2 protein (PSD-95 PDZ1-2 …); assay: fluorescence polarization, heterologous competition against AB143 probe
[3] = target: T1, HIS-PDZ1-2 protein (PSD-95 PDZ1-2 …); assay: as above; remark: listed apart in the source

- Kd [1]: 7.8 nM
B1: 5-FAM-labeled NPEG4(IETAV)2 probe, AB143 (peptide)
peptide: IETAV
modifications: also: dimer: two IETAV chains on NPEG4 scaffold, 5-FAM label, position not given here

- Ki [2]: 9.5 nM
Binder: IETAV (modifications not checked) [PEG4(IETAV)2 (AB125)]

- Ki [3]: 9.3 nM
- Ki [2]: 9.5 nM
Binder: IETAV (modifications not checked) [NPEG4(IETAV)2 (AB141)]
